For 27 sequences, protein stability index results are on record in the supplement of paper PMC9732359.

± gives the uncertainty stated by the source.

This data set is described as follows: protein stability index of a GFP-peptide fusion (yeast GPS) (PSI 1-4); higher = more stable; sorted into four equal gates, so the index is relative within each strain. In outline: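 Tiled 17-residue yeast protein peptides were fused downstream of GFP in a plasmid that also expresses Cherry, and the pooled library was carried in yeast. Mid-log cultures in leucine-free medium were sorted into four equal gates by GFP/Cherry fluorescence ratio, and plasmids from each gate were PCR-amplified and Illumina-sequenced, with reads assigned to strains by barcodes. The protein stability index for each peptide was each gate's read frequency times its gate number, summed.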

Take LSKLCVPVANQFINLAG [QCR7]: the protein stability index was 1.98 ± 0.059 (doa10∆), 2.13 ± 0.071 (pdr5∆), 1.81 ± 0.058 (san1∆) and 1.94 ± 0.033 (ubr1∆).

As for LSLTTVPCDRIEKSRLF [SNF6], the protein stability index runs as follows: (doa10∆) 2.51 ± 0.065; (pdr5∆) 2.64 ± 0.076; (san1∆) 2.66 ± 0.053; (ubr1∆) 2.29 ± 0.044.

As for LSQPVSASKHEYSDNFP [SIR4], the protein stability index is 2.24 ± 0.084 (doa10∆), 2.34 ± 0.046 (pdr5∆), 2.82 ± 0.071 (san1∆) and 2.89 ± 0.046 (ubr1∆).

With LSQQQKDAQKKDIEKLT [YIL149C/MLP2], the protein stability index runs as follows: (doa10∆) 2.79 ± 0.079; (pdr5∆) 2.95 ± 0.069; (san1∆) 2.78 ± 0.064; (ubr1∆) 2.97 ± 0.075.

LSRAEYDSDSDSSVEDS [LIN1] returned a protein stability index (doa10∆) of 3.14 ± 0.17, a protein stability index (pdr5∆) of 2.96 ± 0.16, a protein stability index (san1∆) of 2.87 ± 0.085 and a protein stability index (ubr1∆) of 3.16 ± 0.084.

LSRGDDEVTIRRTVGLK [SMC3] displayed a protein stability index (doa10∆) of 3.17 ± 0.096, a protein stability index (pdr5∆) of 2.73 ± 0.083, a protein stability index (san1∆) of 2.77 ± 0.078 and a protein stability index (ubr1∆) of 2.55 ± 0.063.

For the sequence LSSIAERVRNFAVIYLC [DIB1], the protein stability index by setting is: (doa10∆) 1.51 ± 0.083; (pdr5∆) 2.04 ± 0.11; (san1∆) 1.71 ± 0.11; (ubr1∆) 1.88 ± 0.12.

Regarding LSSMRFKPSQEPEFHAL [RRI1], the protein stability index (doa10∆) came to 2.58 ± 0.053, the protein stability index (pdr5∆) amounted to 2.75 ± 0.05, the protein stability index (san1∆) is 2.75 ± 0.075 and the protein stability index (ubr1∆) amounted to 2.42 ± 0.04.

Regarding LSTDATSADLKSKAEEL [UBP6], the protein stability index turned out to be 3.17 ± 0.24 (doa10∆), 2.64 ± 0.13 (pdr5∆), 2.95 ± 0.19 (san1∆) and 3.11 ± 0.21 (ubr1∆).

For the sequence LSTSAFMEIVLEYNVAL [YML031W/NDC1], the protein stability index is, setting by setting: (doa10∆) 1.98 ± 0.037; (pdr5∆) 1.71 ± 0.052; (san1∆) 1.78 ± 0.08; (ubr1∆) 2.12 ± 0.067.

As to LTADYDALDIANRIGYI [RPL25], the protein stability index was determined as 3.33 ± 0.045 (doa10∆), 3.4 ± 0.062 (pdr5∆), 3.54 ± 0.038 (san1∆) and 3.43 ± 0.052 (ubr1∆).

On to LTEQIRELREVIELPLK [RPT4], for which the protein stability index was found to be 2.69 ± 0.14 (doa10∆), 3.73 ± 0.27 (pdr5∆), 3.12 ± 0.17 (san1∆) and 3.06 ± 0.087 (ubr1∆).

For LTGEWSTKFDYPPMPFD [FAS1], the protein stability index reads like this: (doa10∆) 2.85 ± 0.056; (pdr5∆) 2.96 ± 0.062; (san1∆) 2.85 ± 0.048; (ubr1∆) 2.94 ± 0.037.

Consider LTGTVVSTKMHRTIVIR [RPS11A], for which the protein stability index is, setting by setting: (doa10∆) 2.06 ± 0.063; (pdr5∆) 2.25 ± 0.046; (san1∆) 2.14 ± 0.08; (ubr1∆) 1.87 ± 0.037.

Consider LTLTDSQLAQVAAFVNN [BRR2], for which the protein stability index (doa10∆) was found to be 2.14 ± 0.084, the protein stability index (pdr5∆) came out at 2.18 ± 0.099, the protein stability index (san1∆) stood at 2.37 ± 0.15 and the protein stability index (ubr1∆) came to 2.69 ± 0.061.

Turning to LTNQQPKNLSTPSTSSN [CSE2], the protein stability index (doa10∆) is 2.94 ± 0.067, the protein stability index (pdr5∆) turned out to be 2.84 ± 0.068, the protein stability index (san1∆) was determined as 2.67 ± 0.066 and the protein stability index (ubr1∆) was determined as 2.79 ± 0.059.

Regarding LTRFSHDADLEVSMNSI [RPN1], the protein stability index worked out at 3.24 ± 0.099 (doa10∆), 3.14 ± 0.056 (pdr5∆), 3.08 ± 0.05 (san1∆) and 3.1 ± 0.037 (ubr1∆).

On to LTSPAFGPHVDVNDVLT [GRR1], for which the protein stability index was found to be 3.4 ± 0.085 (doa10∆), 3.23 ± 0.062 (pdr5∆), 3.35 ± 0.063 (san1∆) and 3.27 ± 0.056 (ubr1∆).

Consider LTTFANQVMMDRKIQGW [ARP7], for which the protein stability index is 2.69 ± 0.081 (doa10∆), 2.62 ± 0.059 (pdr5∆), 2.45 ± 0.076 (san1∆) and 2.65 ± 0.049 (ubr1∆).

Consider LTTQFVTDKYTAKKTNR [YDL088C/ASM4], for which the protein stability index is, setting by setting: (doa10∆) 2.74 ± 0.14; (pdr5∆) 2.83 ± 0.093; (ubr1∆) 2.8 ± 0.11.

With LTVENKLQFETDRLSTT [SMC1], the protein stability index runs as follows: (doa10∆) 3.24 ± 0.077; (pdr5∆) 3.05 ± 0.05; (san1∆) 2.84 ± 0.047; (ubr1∆) 2.94 ± 0.044.

Regarding LVDLKKELAELKVQKLS [RPL35A], the protein stability index is, setting by setting: (doa10∆) 1.2 ± 0.066; (pdr5∆) 1.59 ± 0.097; (san1∆) 1.46 ± 0.12; (ubr1∆) 1.68 ± 0.085.

Consider LVESVDRFKPNLDIAKD [MED4], for which the protein stability index by setting is: (doa10∆) 3.37 ± 0.29; (pdr5∆) 3.33 ± 0.17; (san1∆) 3.15 ± 0.072; (ubr1∆) 2.9 ± 0.15.

As for LVHGIFGAKMSRTLILS [SIN4], the protein stability index is 1.8 ± 0.063 (doa10∆), 1.41 ± 0.044 (pdr5∆), 1.36 ± 0.088 (san1∆) and 1.65 ± 0.039 (ubr1∆).

For LVILKPDLNIDRNNSTN [SIN4], the protein stability index turned out to be 2.73 ± 0.057 (doa10∆), 2.23 ± 0.064 (pdr5∆), 2.56 ± 0.065 (san1∆) and 2.67 ± 0.041 (ubr1∆).

For the sequence LVKDRKFLREVFVDGEA [RPO21], the protein stability index came out at 3.1 ± 0.14 (doa10∆), 3.46 ± 0.27 (pdr5∆), 2.62 ± 0.1 (san1∆) and 2.85 ± 0.21 (ubr1∆).

Take LVKIDDLSANQRETMKE [SMC1]: the protein stability index runs as follows: (doa10∆) 3.29 ± 0.083; (pdr5∆) 3.22 ± 0.091; (san1∆) 3 ± 0.11; (ubr1∆) 3.45 ± 0.089.
